Measured values: US20080299097A1

How the values were obtained:
CX3CR1 (human) = CX3CR1 (human) (UniProt P49238); assay: cell-based or functional assay
CXCR4 (human) = CXCR4 (human) (UniProt P61073); assay: cell-based or functional assay
UniProt P61073, sequence (P61073 whole entry): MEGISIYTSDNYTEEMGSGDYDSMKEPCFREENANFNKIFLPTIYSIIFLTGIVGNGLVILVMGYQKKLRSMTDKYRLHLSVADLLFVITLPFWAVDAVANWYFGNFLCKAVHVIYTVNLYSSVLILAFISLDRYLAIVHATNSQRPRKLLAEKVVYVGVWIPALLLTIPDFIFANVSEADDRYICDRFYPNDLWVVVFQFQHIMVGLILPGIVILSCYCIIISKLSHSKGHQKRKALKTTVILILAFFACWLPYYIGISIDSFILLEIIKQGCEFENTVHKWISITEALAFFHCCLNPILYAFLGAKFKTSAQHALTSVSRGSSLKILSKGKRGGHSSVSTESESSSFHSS

UniProt P49238, sequence (P49238 whole entry): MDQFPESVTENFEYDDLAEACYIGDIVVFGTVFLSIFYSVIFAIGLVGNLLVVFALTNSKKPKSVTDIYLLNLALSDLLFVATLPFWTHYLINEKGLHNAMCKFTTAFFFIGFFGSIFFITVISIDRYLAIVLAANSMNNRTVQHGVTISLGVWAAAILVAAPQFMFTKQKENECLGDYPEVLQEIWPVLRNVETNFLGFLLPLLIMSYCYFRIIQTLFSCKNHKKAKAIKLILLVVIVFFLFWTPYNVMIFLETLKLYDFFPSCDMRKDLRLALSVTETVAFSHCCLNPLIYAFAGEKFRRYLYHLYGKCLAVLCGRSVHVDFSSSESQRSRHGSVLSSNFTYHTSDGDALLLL

decrease of neurosphere-induced migration of RS-MSCs and mMSCs (CX3CR1 (human)) | decrease of neurosphere-induced migration of RS-MSCs and mMSCs (CXCR4 (human)) | Substance
40% |  | anti-human CX3CR1 (clone 2A9-1; MBL) (antibody)
 | 40% | anti-human CXCR4 (clone 12G5; R&D Systems) (antibody)
